Reference: article PMC10231827

Assays:
[1] = target: S2P.OmiBA1-1208.H8 (SARS CoV-2 (Omicron BA.1)); test: SEC
[2] = target: hACE2-Fc (human) (UniProt Q9BYF1); test: BLI; ACE2-Fc (10 ug/ml in kinetic buffer) captured on anti-human IgG Fc capture (AHC) biosensors, S2P glycoproteins as analyte; 30°C; association 300 s, dissociation 300 s; 1:1 binding model

| Substance | percent dissociated to a lower-order form after freeze-thaw [1] [%] | Kd [2] [nM] | Req [2] [nm] | koff [2] [s⁻¹] | kon [2] [M⁻¹ s⁻¹] |
| --- | --- | --- | --- | --- | --- |
| S2P.OmiBA1-1208.H8 (domain or fragment) | 15 |  |  |  |  |
| S2P.OmiBA1-FHA (domain or fragment) |  | 0.641 | 0.35 | 0.00027 | 420000 |
